Data as given in US20250368734A1 (ANTENGENE BIOLOGICS, published 2025).

T1: mouse GPRC5D (mouse, UniProt Q9JIL6 1-344)
T1 construct: whole, on cells; HEK293T-mGPRC5D cells; also called mGPRC5D; murine GPRC5D
T1 sequence (looked up): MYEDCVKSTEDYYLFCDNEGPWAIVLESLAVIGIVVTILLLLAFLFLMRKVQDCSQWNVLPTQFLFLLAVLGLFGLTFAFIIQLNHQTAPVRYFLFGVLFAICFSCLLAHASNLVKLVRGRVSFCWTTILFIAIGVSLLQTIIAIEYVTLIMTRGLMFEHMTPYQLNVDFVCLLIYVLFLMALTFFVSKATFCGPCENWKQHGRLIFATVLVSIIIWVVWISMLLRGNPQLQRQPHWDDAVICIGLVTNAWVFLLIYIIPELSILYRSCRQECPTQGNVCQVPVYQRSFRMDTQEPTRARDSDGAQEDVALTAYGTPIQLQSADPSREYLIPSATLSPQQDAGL


What was measured:
[1] = target: T1, mouse GPRC5D; experiment: FACS, HEK293T-mGPRC5D cells
Source text: (§1) The subcloning plates were screened by Mirrorball assay and the subclones with good binding ability were expanded to 24-wells for confirmation tests. The specificity and cross-reactivity of these subclones were confirmed with FACS analysis. Briefly, parental HEK293T, HEK293T cells stably over-expressing human GPRC5D protein (i.e., HEK293T-hGPRC5D), HEK293T cells stably over-expressing cynomolgus monkey GPRC5D protein (i.e., HEK293T-cynoGPRC5D), HEK293T cells stably over-expressing mouse GPRC5D protein (i.e., HEK293T-mGPRC5D), and OPM2 cells were incubated with antibodies produced by each subclone, respectively. Fluorescent dye-conjugated secondary antibody was used to detect the binding of the primary antibody with the cells. Median fluorescence intensity (MFI) was measured by FACS analysis,
(§2) As a result, 21 antibodies were discovered with unique sequences showing positive binding with HEK293T-hGPRC5D and OPM2 cells. Among which, some clones could also bind with HEK293T-cynoGPRC5D and/or HEK293T-mGPRC5D. […] ATG596 was a positive human IgG1 control antibody which comprises a VH region having an amino acid sequence as set forth in SEQ ID NO: 199, and a VL region having an amino acid sequence as set forth in SEQ ID NO: 200.

[2] = target: T2, human GPRC5D (human, UniProt Q9NZD1 1-345); experiment: FACS, OPM-2 cells
T2 construct: whole, on cells; also called hGPRC5D; G-protein coupled receptor family C group 5 member D
T2 sequence (Q9NZD1 whole entry): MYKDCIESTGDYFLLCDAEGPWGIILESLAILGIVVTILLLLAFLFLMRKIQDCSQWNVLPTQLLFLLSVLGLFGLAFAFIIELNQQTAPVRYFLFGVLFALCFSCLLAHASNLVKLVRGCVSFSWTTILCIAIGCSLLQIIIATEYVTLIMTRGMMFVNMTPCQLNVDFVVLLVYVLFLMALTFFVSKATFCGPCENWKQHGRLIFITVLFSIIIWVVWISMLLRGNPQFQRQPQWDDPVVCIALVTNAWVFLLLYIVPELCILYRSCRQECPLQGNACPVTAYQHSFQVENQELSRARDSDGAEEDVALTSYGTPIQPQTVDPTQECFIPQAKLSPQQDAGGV
Source text: as §1, §2

[3] = target: T2, human GPRC5D; experiment: FACS, HEK293T-hGPRC5D cells
Source text: as §1, §2

[4] = target: T3, cynomolgus monkey GPRC5D (cynomolgus monkey); experiment: FACS, HEK293T-cynoGPRC5D cells
T3 construct: whole, on cells; HEK293T-cynoGPRC5D cells; also called cynoGPRC5D
Source text: as §1, §2

[5] = target: T2, human GPRC5D; experiment: FACS, CHOS-hGPRC5D cells
[6] = target: T1, mouse GPRC5D; experiment: FACS, HEK293T-mGPRC5D cells; remark: listed apart in the source
[7] = target: T3, cynomolgus monkey GPRC5D; experiment: FACS, HEK293T-cynoGPRC5D cells; remark: listed apart in the source

| % Positive [1] [%] | MFI [1] | % Positive [2] [%] | MFI [2] | % Positive [3] [%] | MFI [3] | % Positive [4] [%] | MFI [4] | EC50 [5] [nM] | Top [5] | EC50 [6] [nM] | Top [6] | EC50 [7] [nM] | Top [7] | Binder |
| --- | --- | --- | --- | --- | --- | --- | --- | --- | --- | --- | --- | --- | --- | --- |
|  |  |  |  |  |  |  |  | 4.85 | 3940 | 38.6 | 57600 | 9.2 | 68900 | ch101B3G3 (antibody, V domains shown) VH: EVQLQQSGPELVKPGASMKISCKASGYSFTGYTMNWVKQSHGKNLEWIGLINPYNGGTRYNQKFKDKATLTVDKSSSTAYMELLSLTSEDSAVYYCARWLLRYAMDYWGQGTSVTVSS VL: DIVMTQSQKFMSTSVGDRVSITCKASQNVGNAVAWYQQKPGHSPKLLISSASNRKNGVPDRFTGSGSGTDFTLTVSNMQSEDLADYFCQQYSDSSWTFGGGTKLEIK |
|  |  |  |  |  |  |  |  | 2.74 | 1820 | 14.2 | 42900 | 4.87 | 27600 | ch110B4H5 (antibody, V domains shown) VH: EVQLQQSGPELVKPGASVKMSCKASGYTFTFYIMHWVKQKPGQGPEWIGYINPYNDGTKYNAKFKGKATLSSDRSSSTAYMELSSLTSEDSAVYYCARGGVRRYFDVWGAGTPVTVSS VL: DIQMTQSPSSLSASLGERVSLTCRSSQDIGSNLNWLQQEPDGTIKRLIYATFSLDSGVPKRFSGSRSGSHYSLTISSLESEDFVVYYCLQYGSFPYTFGGGTKLEIK |
|  |  |  |  |  |  |  |  | 0.463 | 2040 | 109 | 25500 | 3.87 | 39700 | ch108C4C12 (antibody, V domains shown) VH: EVQLQQSGPELVKPGASVKMSCKASGYTFTSYVIHWVKQKTGQGLEWIGYFNPYNDGTKYNEEFKGKATLTSDKSSNTAYMELNSLTSDDSAVYFCARGGVRRYFDVWGAGTTVTVSS VL: DIQMTQSPSSLSASLGERVSLTCRASQDIGSNLNWLQQEPDGTIKRLIYATFGLDSGVPKRFSGSRSGSDYSLTISSLESEDFVDYYCQQYASFPYTFGGGTKLEIK |
|  |  |  |  |  |  |  |  | 8.51 | 2250 | 12.3 | 55300 | 13.6 | 61600 | ch90G6H3 (antibody, V domains shown) VH: QAYLQQSGAELVRSGASVKMSCKASGYTFTSYIMHWVKQTPGQGLEWIGYIYPGNGGTNYNQKFKDKATLSADTSSSTAYMQINSLTSEDSAVYFCARWGLRQGFAYWGQGTLVSVSA VL: DIVMTQSQKFMSTSVGDRVSVTCKASQNVGGNVAWYQQKPGQSPKALIYSTSYRNSGVPDRFTGSGSGTDFTLTISNVQSEDLAEYFCQQYNSYPFTFGSGTKLEIR |

Second part, the binder before the results:

| Binder | % Positive [1] [%] | MFI [1] | % Positive [2] [%] | MFI [2] | % Positive [3] [%] | MFI [3] | % Positive [4] [%] | MFI [4] | EC50 [5] [nM] | Top [5] | EC50 [6] [nM] | Top [6] | EC50 [7] [nM] | Top [7] |
| --- | --- | --- | --- | --- | --- | --- | --- | --- | --- | --- | --- | --- | --- | --- |
| 87A3G8 (antibody, V domains shown, Mouse monoclonal antibody from hybridoma subclone) VH: QVQLKESGPGLVAPSQSLSITCTVSGFSLSSYSVYWVRQPPGKGLEWLGVIWAGGSTNYNSALMSRLSINKDKSKSQVFLKMNSLQTDDSAIYYCAMRWLPRGLDFWGQGTSVTVSS VL: DIVMTQSHKFMSTSVGDRVSITCKASQDVGTAVAWYQQKPGQSPKLLIYWASTRHTGVPDRFTGSGSGTDFTLTISNVQSEDLADYFCQQYSTYYTFGGGTKLEIK | 46.2 | 178 | 92.7 | 451 | 88.6 | 7380 | 76.7 | 3960 |  |  |  |  |  |  |
| ch87A3G8 (antibody, V domains shown) VH: QVQLKESGPGLVAPSQSLSITCTVSGFSLSSYSVYWVRQPPGKGLEWLGVIWAGGSTNYNSALMSRLSINKDKSKSQVFLKMNSLQTDDSAIYYCAMRWLPRGLDFWGQGTSVTVSS VL: DIVMTQSHKFMSTSVGDRVSITCKASQDVGTAVAWYQQKPGQSPKLLIYWASTRHTGVPDRFTGSGSGTDFTLTISNVQSEDLADYFCQQYSTYYTFGGGTKLEIK |  |  |  |  |  |  |  |  | 2.81 | 1950 | 15 | 76200 | 9.74 | 42200 |
| 89F11E3 (antibody, V domains shown, Mouse monoclonal antibody from hybridoma subclone) VH: QVQLQQSGAELARPGASVKMSCKASGYTFTSSTIHWVKQRPGQGLAWIGYIVPSTGYTNYNQKFKDKATLTADKSSSTAYMQLTSLTSEDSAVYYCARSDGYPFGYSMAYWGQGTSVTVSS VL: DIQMNQSPSSLSASLGDTITITCHASQNINVWLSWYHQKPGNIPKLLIYKASNLHTGVPSRFSGSGSGTGFTLTISRLQPEDIATYYCQQGQSYPFTFGSGTKLEIK | 74.6 | 1100 | 98.1 | 999 | 96.7 | 19200 | 98.8 | 16500 |  |  |  |  |  |  |
| ch89F11E3 (antibody, V domains shown) VH: QVQLQQSGAELARPGASVKMSCKASGYTFTSSTIHWVKQRPGQGLAWIGYIVPSTGYTNYNQKFKDKATLTADKSSSTAYMQLTSLTSEDSAVYYCARSDGYPFGYSMAYWGQGTSVTVSS VL: DIQMNQSPSSLSASLGDTITITCHASQNINVWLSWYHQKPGNIPKLLIYKASNLHTGVPSRFSGSGSGTGFTLTISRLQPEDIATYYCQQGQSYPFTFGSGTKLEIK |  |  |  |  |  |  |  |  | 2.41 | 2600 | 14.2 | 77300 | 278 | 40500 |
| 82A1C10 (antibody, V domains shown, Mouse monoclonal antibody from hybridoma subclone) VH: QVQLKESGPGLVAPSQSLSITCTVSGFSLTNYAVTWVRQPPGKGLEWLGVIWGDGSTYYHSALVSRLSITKDNSRTQVLLKLNSLQTDDTARYYCAKGGYSPFAYWGQGTLVTVSA VL: DVVMTQTPLSLPVSLGDQASISCRSSQSLVHSNGNTYLHWYLQKPGQSPKLLIFKVSNRFSGVPDRFSGSGSGTDFTLKISRVEAEDLGVYFCSQNTHVPFTFGSGTKLEIK | 4.5 | 119 | 94.8 | 550 | 99.4 | 8090 | 94.2 | 1070 |  |  |  |  |  |  |
| 96C9E7 (antibody, V domains shown, Mouse monoclonal antibody from hybridoma subclone) VH: EVQLQQSGPELVKPGASVKMSCKASGYTFTYYILHWVKQKPGQGLEWIGYFNPYNDGNKFNERFRGKATLTSDKSSSTAYMELNSLTSEDSAVYFCARGGVRRYFDVWGAGTTVTVSS VL: DIQMTQSPSSLSASLGERVSLTCRASQDIGSNLNWLQQEPDGTIKRLISATFSLDSGVPKRFSGSRSGSDYSLTISSLESEDFVNYYCLQYASFPYTFGGGTKLEIK | 49.2 | 202 | 99.9 | 1930 | 58.8 | 680 | 71.7 | 4020 |  |  |  |  |  |  |
| 108C4C12 (antibody, V domains shown, Mouse monoclonal antibody from hybridoma subclone) VH: EVQLQQSGPELVKPGASVKMSCKASGYTFTSYVIHWVKQKTGQGLEWIGYFNPYNDGTKYNEEFKGKATLTSDKSSNTAYMELNSLTSDDSAVYFCARGGVRRYFDVWGAGTTVTVSS VL: DIQMTQSPSSLSASLGERVSLTCRASQDIGSNLNWLQQEPDGTIKRLIYATFGLDSGVPKRFSGSRSGSDYSLTISSLESEDFVDYYCQQYASFPYTFGGGTKLEIK | 65.7 | 274 | 98.3 | 878 | 96.6 | 5010 | 59.1 | 355 |  |  |  |  |  |  |
| 110B4H5 (antibody, V domains shown, Mouse monoclonal antibody from hybridoma subclone) VH: EVQLQQSGPELVKPGASVKMSCKASGYTFTFYIMHWVKQKPGQGPEWIGYINPYNDGTKYNAKFKGKATLSSDRSSSTAYMELSSLTSEDSAVYYCARGGVRRYFDVWGAGTPVTVSS VL: DIQMTQSPSSLSASLGERVSLTCRSSQDIGSNLNWLQQEPDGTIKRLIYATFSLDSGVPKRFSGSRSGSHYSLTISSLESEDFVVYYCLQYGSFPYTFGGGTKLEIK | 78.9 | 772 | 98.2 | 894 | 98.7 | 5250 | 96.7 | 2470 |  |  |  |  |  |  |
| 90G6H3 (antibody, V domains shown, Mouse monoclonal antibody from hybridoma subclone) VH: QAYLQQSGAELVRSGASVKMSCKASGYTFTSYIMHWVKQTPGQGLEWIGYIYPGNGGTNYNQKFKDKATLSADTSSSTAYMQINSLTSEDSAVYFCARWGLRQGFAYWGQGTLVSVSA VL: DIVMTQSQKFMSTSVGDRVSVTCKASQNVGGNVAWYQQKPGQSPKALIYSTSYRNSGVPDRFTGSGSGTDFTLTISNVQSEDLAEYFCQQYNSYPFTFGSGTKLEIR | 87.4 | 2230 | 97.3 | 712 | 96.7 | 4940 | 99.4 | 11400 |  |  |  |  |  |  |
